Experiment: soluble on expression in E. coli; label from the status in PepcDB or PDB records

Sequence | soluble on expression in E. coli
MSLAHYKKFRLSTLAAVVGIVLAVGPENSYAEAPIQFNTRFLDVKDDASLDLSRFSRKGYIMPGSYHLQVLVNQSQIVQDNVITYSVDNNDPDNTYPCLSPELVSLLGLKPEIADKMIWINAGQCLQPDQLEGMETQTDLSQSTLTVIIPQAYLEYSDEEWDPPSRWDEGIPGVLFDYNVNSQWRHAEHDDGDEYDISGNGTVGANLGAWRLRADWQANYRHENDSEDKDNFGSSSEQNWDWNRYYAWRAIPQLRAQLTLGEGSLESDIFDGFNYVGGSLITDDQMLPPNLRGYAPDISGVARTNAKVTVTQRGRVIYESQVPAGPFRIQDINETVSGDLHVKIEEQSGQVQEYDVSTASIPFLTRPGQVRYKLAAGRPQDWDHNMEGGFFTSAEASWGIANGWSLYGGAIGEQDYQALALGLGRDLALLGAFSVDVTHSRATLPEGSAYGDGTIQGNSFRASYAKDFDDIDSRLTFAGYRFSEENYMTMDEFIDTHNDDNDRQRTGHDKEMYTLTYSQNFSAINVNAYINYTHRTYWNQPNQDSYNLTLSHYFDVGEVRGISLSVNGFRNEYDNERDDGVYVSLSIPWGNNRTLSYNGSFSDDNNSNQVGYYERIDDRNNYQINAGRADNGATLDGYYRYQASYADIDVSANYQEGDYTSGGLNIQGGATLTAKGGALHRTSVNGGSRLLVDVGDEANVPISGYSTPVYTNAFGKAVIVDVNDYYRNQVKIDITQLPEDAEAILSIAQATLTEGAIGYRRMEVLSGKKAMASIRLRDGGTPPFGAEVYNSRQQQLGIVGEDGSVYLIGINPGERLQVTWEGKTQCEATLPDPLPGDLFSGLLLPCIGDASSPEATQPEEKPLLQLHTQRRTSSTQPEALSSRYPTHEGGSHHHHHH | soluble
MSPKSVVVTGSNRGLGFGLVQQFLKDPNVQHVIATARDVDKATALKGICDPRLHILQLSLGSDESIANFAEKVSEIVGESGLTLLINNAAVMLPYVTKQKPDRKVVLDLFESNTIGPMMLTQSLVPLIIKASKRQEGDTLSVSRGAIINIASEFLGSISENTSGSGEYKAMAYRMTKCAVNQFTKTLSIDLKDDHILTAGICPGMVQTDMSKGKGQLTIEESSSQILAAFNKLGATHNGGYFRRDLSIIPY | not soluble
MNKYFYDGTPEGLVSAIGAILESGDDPEQTVLSIRQDTLFEEGLFLRTDSAVAEALFQRLRERAPDAVQTLWYFTMTEVDGLATSLLRYIALAFEHGDQVNGYLTHPDVKAVVATARKVGRELHRMKGLLRFEQLRDGTWLARMEPDHNVIQPLARHFSRRLRTQEWFIYDARRHSAAHWDGHALSFGTLERFSRPELSPEERVMQQLWQTFFKTIAIPERKNPRLQQSNMPAKYWKYLTEKQGE | not soluble
TKDLPIHACSYCGIHDPACVVYCNTSKKWFCNGRGNTSGSHIVNHLVRAKCKEVTLHKDGPLGETVLECYNCGCRNVFLLGFIPAKADSVVVLLCRQPCASQSSLKDINWDSSQWQPLIQDRCFLSWLVKIPSEQEQLRARQITAQQINKLEELWKENPSATLEDLEKPGVDEEPQHVLLRYEDAYQYQNIFGPLVKLEADYDKKLKESQTQDNITVRWDLGLNKKRIAYFTLPKTDSDMRLMQGDEICLRYKGDLAPLWKGIGHVIKVPDNYGDEIAIELRSSVGAPVEVTHNFQVDFVWKSTSFDRMQSALKTFAVDETSVSGYIYHKLLGHEVEDVIIKCQLPKRFTAQGLPDLNHSQVYAVKTVLQRPLSLIQGPPGTGKTVTSATIVYHLARQGNGPVLVCAPSNIAVDQLTEKIHQTGLKVVRLCAKSREAIDSPVSFLALHNQIRNMDSMPELQKLQQLKDETGELSSADEKRYRALKRTAERELLMNADVICCTCVGAGDPRLAKMQFRSILIDESTQATEPECMVPVVLGAKQLILVGDHCQLGPVVMCKKAAKAGLSQSLFERLVVLGIRPIRLQVQYRMHPALSAFPSNIFYEGSLQNGVTAADRVKKGFDFQWPQPDKPMFFYVTQGQEEIASSGTSYLNRTEAANVEKITTKLLKAGAKPDQIGIITPYEGQRSYLVQYMQFSGSLHTKLYQEVEIASVDAFQGREKDFIILSCVRANEHQGIGFLNDPRRLNVALTRARYGVIIVGNPKALSKQPLWNHLLNYYKEQKVLVEGPLNNLRESLMQFS | soluble
MGSDKIHHHHHHMCPMQNYPYVITVSSEKGGVGKTTLATNLAIYLKALDENLPVTIFSFDNHFTVDRMFEIRGQRLTGSVADLLMESPPRDLIHTGQYGVGYIPSSASLNDLKGSIRGPMVLARLLAASRIPGVLIIDTRPDLDMLTQNALFAADRAIIPVKDMPSLENCRNIFALFEQRGLDRKSLSLIPCLVDERIKFDGPFNDQKTLLKAYAINRGYRCLDVYISKSPKVESLNTNPDGKIYPILTHAKWTEVHGQFAQLAQILINEYNATTEPRSLLFHKWLQTEESRKKEEFFARLSGIKSQCLLCGKPVSDDGDGRHSFYFEVSDGSAAGFFEEECFLTMLMTNIYNMDVSMVDDAPTVHLMRDSSRESAFVFRPASNGGAVEFHRFSLDGTLLIKKNYPLREYEGGLLRRERSRLYTLMTEALGTAGAGSSDRFILVHPVTRDNPQGILRDESYRGLTKLKQHIAAQIASS | not soluble
MSLSFTVAVKEEILGQHHLSRHELSAIIKMSGSIGLSTSGLTLSVVTENAKLARHLYESFLHFYEIKSEIRHHQRSNLRKNRVYTVFTDEKVQDLLSDLHLADSFFGLETGIDEAILSDEEAGRAYLCGAFLANGSIRDPESGKYQLEISSVYLDHAQGIASLLQQFLLDAKVLERKKGAVTYLQRAEDIMDFLIVIGAMQARDDFERVKILRETRNDLNRANNAETANIARTVSASMKTINNISKIKDIMGLENLPVDLQEVAQLRIQHPDYSIQQLADSLSTPLTKSGVNHRLRKINKIADELEGHHHHHH | soluble
VKKNGLGEIKSIYIDDNVSGSGFERRGIYELKRDVMEGKINLLVLKDLSRLGRNNAKTLLFLDFLEENGVRVVTFDGRYDSLKDNDIVGIETWFNERYILDISRKIRANLRFKIQKGEYIGHAPFGYEKSPYEKNRLIVNEEEAGIVRRIYSLYKEGYGYSYIAGILNSEGVKSPSNGRWNPTAIRRILLNRVYTGDTVQGVSEKISFKSKKTRRLPKERWVITENTHEPIVSKEEYEEIQRIRNNKNARPVPHKGIIHVFRGSIFCGGCGSVMFARKRHNRPMSYICSSYAKEGRTACTSHSIREKDLCEVVLDDVAKLLDDENMVNKILQKIDLAGAAEDYQTLREKLLKQMEAKQKQQEILYQDRLENKISESLFLRMNNRLENRISEIKREIAQLDLRKSEFVTSEEKIAKLKNYITNNGITNEIVKIVINRIIVFDKGDNYLEEKWNLNLSQKEKRYIELYGAVLIEYGF | soluble
MSLKKSFLLLPLSLVVLSACTSNFPAPISDADGNFSPSVIQSVNGSNVGGAWQPEIQKNSLPTTGNMVTPQQNFQPINQQPTMPTAPAQPAFQPSPKTVVSAPTVQTKTVTKTVADCVDGQHINIPRNPNTNAPDYSKISKGSYKGNTYKVNKGDTMFLIAYLAGIDVKELAALNNLSEPYNLSLGQVLKISNCDIKTVTTTVSVKQPAVTASTATPVKPAVTYTPGANGTQIGSDGTIIGPIKSEAGTSPSVPVATSSTQVTSSVNNANSTPINSNVVAPIASNVVWQWPTSGNIIQGFSSTDGGNKGIDISGSRGQAVKAAAAGRIVYAGNALRGYGNLIIIKHNDDFLSAYAHNDKILVADQQEVKAGQDIAKMGSSGTNTVKLHFEIRYKGKSVDPVRYLPRHEGHHHHHH | not soluble
MKLPVREFDAVVIGAGGAGMRAALQISQSGQTCALLSKVFPTRSHTVSAQGGITVALGNTHEDNWEWHMYDTVKGSDYIGDQDAIEYMCKTGPEAILELEHMGLPFSRLDDGRIYQRPFGGQSKNFGGEQAARTAAAADRTGHALLHTLYQQNLKNHTTIFSEWYALDLVKNQDGAVVGCTALCIETGEVVYFKARATVLATGGAGRIYQSTTNAHINTGDGVGMAIRAGVPVQDMEMWQFHPTGIAGAGVLVTEGCRGEGGYLLNKHGERFMERYAPNAKDLAGRDVVARSIMIEIREGRGCDGPWGPHAKLKLDHLGKEVLESRLPGILELSRTFAHVDPVKEPIPVIPTCHYMMGGIPTKVTGQALTVNEKGEDVVVPGLFAVGEIACVSVHGANRLGGNSLLDLVVFGRAAGLHLQESIAEQGALRDASESDVEASLDRLNRWNNNRNGEDPVAIRKALQECMQHNFSVFREGDAMAKGLEQLKVIRERLKNARLDDTSSEFNTQRVECLELDNLMETAYATAVSANFRTESRGAHSRFDFPDRDDENWLCHSLYLPESESMTRRSVNMEPKLRPAFPPKIRTY | soluble
MSLKPQVYHVDAFTSQPFRGNSAGVVFPADNLSEAQMQLIARELGHSETAFLLHSDDSDVRIRYFTPTVEVPICGHATVAAHYVRAKVLGLGNCTIWQTSLAGKHRVTIEKHNDDYRISLEQGTPGFEPPLEGETRAAIINALHLTEDDILPGLPIQVATTGHSKVMIPLKPEVDIDALSPDLNALTAISKKIGCNGFFPFQIRPGKNETDGRMFSPAIGIVEDPVTGNANGPMGAWLVHHNVLPHDGNVLRVKGHQGRALGRDGMIEVTVTIRDNQPEKVTISGTAVILFHAEWAIELEGGSHHHHHH | soluble
MGSSHHHHHHSQDMDKNELVQKAKLAEQAERYDDMAACMKSVTEQGAELSNEERNLLSVAYKNVVGARRSSWRVVSSIEQKTEGAEKKQQMAREYREKIETELRDICNDVLSLLEKFLIPNASQAESKVFYLKMKGDYYRYLAEVAAGDDKKGIVDQSQQAYQEAFEISKKEMQPTHPIRLGLALNFSVFYYEILNSPEKACSLAKTAFDEAIAELDTLSEESYKDSTLIMQLLRDNLTLWTSDTQGDEAEAGEGGEN | soluble
MHSLQNVIPQQQAHIAELQVYNNKLERDLQNKIGSLTSSIEWYLRSMELDPEIKADIEQQINSIDAINPLHAFDDLESVIRNLISDYDKLFLMFKGLIQRSNYQYSFGSE | soluble
MGSDKIHHHHHHMERKTDSIDLAPLFHPDTIRLSRLAERLDDGPYHGGRIDPLALVITQREEATGQAGIDRYPMLQLAVGRAGMQVGQVDLGQLHPPVRSYLECRFHILKIVNLRHISIISRRNNSPEITLSHPKRQSPHALPYLCINIKKQHIMIRYKKYQNKNEKNVTTFNKWYARAVCEETVDIAALAEHMSTHNTPFSTGAIHGMLKDMVNCIKELLMDGKNVKIDDLGIFSVGIRSKGAVTPEDFSTQGNIIGVRLRARATGNLSSASLKLTAKLREYTEYSNGEVTPGGGGGDSESPDEI | not soluble
TPPSGSGNWESLFNGLYRLQQRQRRKRKELTNLIRRFRNGAESLPDAVVVFRAEGNIVWCNRLAQHLLGFHWPEDSGQPISNLIRTPDFIKYLNKKDFSEPLEMRSPLNVERMLELRIVPYTEGEHLMVVRD | not soluble
MGSDKIHHHHHHMISMKPRYKPDWESLREHTVPKWFDKAKFGIFIHWGIYSVPGWATPTGELGKVPMDAWFFQNPYAEWYENSLRIKESPTWEYHVKTYGENFEYEKFADLFTAEKWDPQEWADLFKKAGAKYVIPTTKHHDGFCLWGTKYTDFNSVKRGPKRDLVGDLAKAVREAGLRFGVYYSGGLDWRFTTEPIRYPEDLSYIRPNTYEYADYAYKQVMELVDLYLPDVLWNDMGWPEKGKEDLKYLFAYYYNKHPEGSVNDRWGVPHWDFKTAEYHVNYPGDLPGYKWEFTRGIGLSFGYNRNEGPEHMLSVEQLVYTLVDVVSKGGNLLLNVGPKGDGTIPDLQKERLLGLGEWLRKYGDAIYGTSVWERCCAKTEDGTEIRFTRKCNRIFVIFLGIPTGEKIVIEDLNLSAGTVRHFLTGERLSFKNVGKNLEITVPKKLLETDSITLVLEAVEE | not soluble
MDIDECESGAHQCSEAQTCVNFHGGYRCVDTNRCVEPYIQVSENRCLCPASNPLCRE | soluble
MSLSQSSRLSALPIFQASLSASQSPRYIFSSQNGTRIVFIQDNIIRWYNVLTDSLYHSLNFSRHLVLDDTFHVISSTSGDLLCLFNDNEIFVMEVPWGYSNVEDVSIQDAFQIFHYSIDEEEVGPKSSIKKVLFHPKSYRDSCIVVLKEDDTITMFDILNSQEKPIVLNKPNNSFGLDARVNDITDLEEGHHHHHH | soluble
